Measurements from US20190194280A1.

B1: Aβ-3-7 or APP 770 (V669-D678) (peptide)
peptide: VKMDAEFRHD
B2: Aβ5-14 or APP 770 (R676-H685) (peptide)
peptide: RHDSGYEVHH
B3: Aβ6-15 or APP 770 (H677-Q686) (peptide)
peptide: HDSGYEVHHQ
B4: Aβ7-16 or APP 770 (D678-K687) (peptide)
peptide: DSGYEVHHQK
B5: Aβ8-17 or APP 770 (S679-L688) (peptide)
peptide: SGYEVHHQKL
B6: Aβ17-42 (Aβ or APP 770 (L688-A713)) (peptide)
peptide: LVFFAEDVGSNKGAIIGLMVGGVVIA

Each binder was assayed against Serum samples collected at week 16 from patients immunized with UBI AD vaccine (UB-311) (assay: comp. ELISA, serum P207).

| Binder | IC50-based peak height |
| --- | --- |
| B1 | 0 |
| B2 | 0 |
| B3 | 0 |
| B4 | 0 |
| B5 | 0 |

The binders below were run against Serum samples collected at week 16 from patients immunized with UBI AD vaccine (UB-311) (assay: comp. ELISA, serum P105).

| Binder | IC50-based peak height |
| --- | --- |
| B1 | 0 |
| B2 | 0 |
| B3 | 0 |
| B4 | 0 |
| B5 | 0 |

What follows are binders tested against Serum samples collected at week 16 from patients immunized with UBI AD vaccine (UB-311) (assay: comp. ELISA, serum P201).

| Binder | IC50-based peak height |
| --- | --- |
| B1 | 0 |
| B2 | 0 |
| B3 | 0 |
| B4 | 0 |
| B5 | 0 |

The binders below were run against Serum samples collected at week 16 from patients immunized with UBI AD vaccine (UB-311) (assay: comp. ELISA, serum P204).

| Binder | IC50-based peak height |
| --- | --- |
| B1 | 1 |
| B2 | 0 |
| B3 | 0 |
| B4 | 0 |
| B5 | 0 |

The binders below were run against Serum samples collected at week 16 from patients immunized with UBI AD vaccine (UB-311) (assay: comp. ELISA, serum P203).

| Binder | IC50-based peak height |
| --- | --- |
| B1 | 0 |
| B2 | 0 |
| B3 | 0 |
| B4 | 0 |
| B5 | 0 |

Each binder was assayed against Serum samples collected at week 16 from patients immunized with UBI AD vaccine (UB-311) (assay: comp. ELISA, serum P108).

| Binder | IC50-based peak height |
| --- | --- |
| B1 | 0 |
| B2 | 0 |
| B3 | 0 |
| B4 | 0 |
| B5 | 0 |

The binders below were run against Serum samples collected at week 16 from patients immunized with UBI AD vaccine (UB-311) (assay: comp. ELISA, serum P209).

| Binder | IC50-based peak height |
| --- | --- |
| B1 | 0 |
| B2 | 0 |
| B3 | 0 |
| B4 | 0 |
| B5 | 0 |

What follows are binders tested against Serum samples collected at week 16 from patients immunized with UBI AD vaccine (UB-311) (assay: comp. ELISA, serum P205).

| Binder | IC50-based peak height |
| --- | --- |
| B1 | 0 |
| B2 | 0 |
| B3 | 0 |
| B4 | 0 |
| B5 | 0 |

What follows are binders tested against Serum samples collected at week 16 from patients immunized with UBI AD vaccine (UB-311) (assay: comp. ELISA, serum P103).

| Binder | IC50-based peak height |
| --- | --- |
| B1 | 0 |
| B2 | 0 |
| B3 | 0 |
| B4 | 0 |
| B5 | 0 |

What follows are binders tested against Serum samples collected at week 16 from patients immunized with UBI AD vaccine (UB-311) (assay: comp. ELISA, serum P107).

| Binder | IC50-based peak height |
| --- | --- |
| B1 | 0 |
| B2 | 0 |
| B3 | 0 |
| B4 | 0 |
| B5 | 0 |

The binders below were run against Immune sera of baboons immunized with UBI AD vaccine (assay: competitive inhibition ELISA).

| Binder | % inhibition at 0 µg/mL [%] | % inhibition at 0.25 µg/mL [%] | % inhibition at 0.5 µg/mL [%] | % inhibition at 1 µg/mL [%] | % inhibition at 2 µg/mL [%] | % inhibition at 8 µg/mL [%] | % inhibition at 32 µg/mL [%] |
| --- | --- | --- | --- | --- | --- | --- | --- |
| B6 | 0 | 5 | 9 | 10 | 5 | 0 | 7 |

The binders below were run against Serum samples collected at week 16 from patients immunized with UBI AD vaccine (UB-311) (assay: comp. ELISA, serum P109).

| Binder | IC50-based peak height |
| --- | --- |
| B1 | 0 |
| B2 | 0 |
| B3 | 0 |
| B4 | 0 |
| B5 | 0 |

The binders below were run against Serum samples collected at week 16 from patients immunized with UBI AD vaccine (UB-311) (assay: comp. ELISA, serum P202).

| Binder | IC50-based peak height |
| --- | --- |
| B1 | 0 |
| B2 | 0 |
| B3 | 0 |
| B4 | 0 |
| B5 | 0 |

What follows are binders tested against Serum samples collected at week 16 from patients immunized with UBI AD vaccine (UB-311) (assay: comp. ELISA, serum P104).

| Binder | IC50-based peak height |
| --- | --- |
| B1 | 0 |
| B2 | 0 |
| B3 | 0 |
| B4 | 0 |
| B5 | 0 |

What follows are binders tested against Serum samples collected at week 16 from patients immunized with UBI AD vaccine (UB-311) (assay: comp. ELISA, serum P208).

| Binder | IC50-based peak height |
| --- | --- |
| B1 | 0 |
| B2 | 0 |
| B3 | 0 |
| B4 | 0 |
| B5 | 0 |

These binders were tested against Serum samples collected at week 16 from patients immunized with UBI AD vaccine (UB-311) (assay: comp. ELISA, serum P102).

| Binder | IC50-based peak height |
| --- | --- |
| B1 | 0 |
| B2 | 0 |
| B3 | 0 |
| B4 | 0 |
| B5 | 0 |

Each binder was assayed against Serum samples collected at week 16 from patients immunized with UBI AD vaccine (UB-311) (assay: comp. ELISA, serum P106).

| Binder | IC50-based peak height |
| --- | --- |
| B1 | 0 |
| B2 | 0 |
| B3 | 0 |
| B4 | 0 |
| B5 | 0 |

These binders were tested against Serum samples collected at week 16 from patients immunized with UBI AD vaccine (UB-311) (assay: comp. ELISA, serum P206).

| Binder | IC50-based peak height |
| --- | --- |
| B1 | 0 |
| B2 | 0 |
| B3 | 0 |
| B4 | 0 |
| B5 | 0 |

Each binder was assayed against Serum samples collected at week 16 from patients immunized with UBI AD vaccine (UB-311) (assay: comp. ELISA, serum P210).

| Binder | IC50-based peak height |
| --- | --- |
| B1 | 13 |
| B2 | 0 |
| B3 | 0 |
| B4 | 0 |
| B5 | 0 |

These binders were tested against Serum samples collected at week 16 from patients immunized with UBI AD vaccine (UB-311) (assay: comp. ELISA, serum P101).

| Binder | IC50-based peak height |
| --- | --- |
| B1 | 31 |
| B2 | 0 |
| B3 | 0 |
| B4 | 214 |
| B5 | 0 |
